Measurements published in article PMC11002309.

Test system: PBRM1-BD4 WT
Test: EMSA
Conditions: 20 uM chosen from titration to approximate EC50; 150 nM DNA, protein 0-50 uM; EMSA: 10.5 mM K3PO4 pH 7 (20 °C), 10 mM KCl, 1% v/v glycerol, 0.2 mM DTT; 1 h on ice; 5% 75:1 native gel in 0.2x TBE, 4 °C

## Widom 601 DNA
  K half: 20 µM
